US20060121580A1

These binders were tested against inactivated SARS-CoV preparation (Frankfurt 1 strain), gamma-irradiated.

| Binder | OD492 nm |
| --- | --- |
| single-chain phage antibody SC03-012 (scFv) scFv: AMAQVQLVQSGAEVKKPGASVKVSCKASGYTFTSYGISWVRQAPGQGLEWMGWISAYNGNTNYAQKLQGRVTMTTDTSTSTAYMELSSLRSDDTAVYYCARMFRKSSFDSWGQGTLVTVSRGGGGSGGGGSGGGGSSELTQDPAVSVALGQTVRITCQGDSLRSYYASWYQQKPGQAPVLVIYGKNNRPSGIPDRFSGSSSGNTASLTITGAQAEDEADYYCNSRDSSGNHVVFGGGTKLTVLGAAA | 0.495 OD492 nm |
| single-chain phage antibody SC03-015 (scFv) scFv: AMAEVQLVESGGGVVRPGGSLRLSCAASGFTFDDYGMSWVRQAPGKGLEWVSGINWNGGSTGYADSVKGRFTISRDNAKNSLYLQMNSLRAEDTAVYYCARGLSLRPWGQGTLVTVSRGGGGSGGGGSGGGGSSELTQDPAVSVALGQTVRITCQGDSLRSYYASWYQQKPGQAPVLVIYGKNNRPSGIPDRFSGSSSGNTASLTITGAQAEDEADYYCNSRDSSGNHVVFGGGTKLTVLGAAA | 0.796 OD492 nm |
| single-chain phage antibody SC03-006 (scFv) scFv: SMAEVQLVESGGGLVQPGGSLRLSCAASGFTFSGYPMHWVRQAPGKGLEWVAVISYDGSNKYYADSVKGRFTISRDNSKNTLYLQMNSLRAEDTAVYYCAKDGSPRTPSFDYWGQGTLVTVLEGTGGSGGTGSGTGTSELDIQMTQSPHSLSASVGDRVTITCRASQGISNYLAWYQQKPGKVPKLLIYAASTLQSGVPSRFSGSGSGTDFTLTISSLQPEDVGVYYCQQRFRTPVTFGQGTKLEIKRAAA | 1.06 OD492 nm |
